Results as given in patent US20240294604A1 (Stanford University, published 2024).
Numbering of substitutions follows the chain as printed.

T1: A Proliferation Inducing Ligand (APRIL) (human, UniProt O75888 105-250)
T1 sequence: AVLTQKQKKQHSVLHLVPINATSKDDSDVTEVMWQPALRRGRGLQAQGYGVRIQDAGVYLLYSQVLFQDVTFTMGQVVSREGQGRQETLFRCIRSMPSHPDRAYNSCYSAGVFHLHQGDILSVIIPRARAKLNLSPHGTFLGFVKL

B1: BCMA#73 (receptor)
variant BCMA extracellular domain: MLQMAGQCSQNEYFDGLLHACIPCQLRCSSNTPPLACQRYCNASVTNSVKGTNA
notes: also called Clone #73; clone #22
B2: BCMA#71 (receptor)
variant BCMA extracellular domain: B1 variant BCMA extracellular domain with H19Y, N53D
notes: also called Clone #71; sBCMA variant clone 71
B3: BCMA#72 (receptor)
variant BCMA extracellular domain: B1 variant BCMA extracellular domain with H19Y
notes: also called Clone #72; sBCMA variant clone 72
B4: BCMA#74 (receptor)
variant BCMA extracellular domain: B1 variant BCMA extracellular domain with S9P, N11D, H19Y, N47S, N53D
notes: also called Clone #74; sBCMA variant clone 74
B5: BCMA#95 (receptor)
variant BCMA extracellular domain: B1 variant BCMA extracellular domain with M1V, L2S, M4T, N11D, G16S, H19Y
notes: also called Clone #95
B6: BCMA#106 (receptor)
variant BCMA extracellular domain: B1 variant BCMA extracellular domain with M1V, L2S, M4T, N31D, T32I
notes: also called Clone #106; clones #106-111
B7: BCMA#75 (receptor)
variant BCMA extracellular domain: MLPMAGQCPQNEYFDSLLYACIPCQLRCSSSTPPLACQHYCNASVTRSVEGTNA
notes: also called Clone #75; clones #49, 75-94

Target: BAFF
Assay: cell binding titration by flow cytometry; soluble BAFF varied on cells displaying the BCMA clone

Row | binding result | Binder
1 | no binding | B1

Target: T1, A Proliferation Inducing Ligand (APRIL)
Assay: cell binding titration by flow cytometry; soluble APRIL varied to 10 nM on cells displaying the BCMA clone; BP is not defined in the filing

Row | BP | Binder
2 | 1030 | B2
3 | 325 | B3
4 | 102 | B1
5 | 1310 | B4
6 | 258 | B5
7 | 527 | B6
8 | 441 | B7

Target: BAFF
Assay: cell binding titration by flow cytometry; soluble BAFF varied to 10 nM on cells displaying the BCMA clone; B.P is not defined in the filing

Row | B.P | Binder
9 | 136 | B2
10 | 121 | B3
11 | 186 | B4

Target: BAFF
Assay: cell binding titration by flow cytometry; soluble BAFF varied to 10 nM on cells displaying the BCMA clone

Row | Bmax [A.U.] | Kd [nM] | Binder
12 | 1230 | 0.009 | B2
13 | 974 | 0.008 | B3
14 | 1680 | 0.009 | B4
15 | 870 | 0.028 | B6

Target: T1, A Proliferation Inducing Ligand (APRIL)
Assay: cell binding titration by flow cytometry; soluble APRIL varied to 10 nM on cells displaying the BCMA clone

Row | Bmax [A.U.] | Kd [nM] | Binder
16 | 8270 | 0.008 | B2
17 | 5860 | 0.018 | B3
18 | 5530 | 0.054 | B1
19 | 9200 | 0.007 | B4
20 | 7230 | 0.028 | B5
21 | 7910 | 0.015 | B6
22 | 7060 | ~0.016 | B7
